# Source: the supplement of paper PMC10567573
# B1: RAB11A (parent)
# chain: AVPTDEARAFAEKNGLSFIETSAL
# Variants of: B1
# Assay: protein stability index of a GFP-peptide fusion (GPS, HEK-293T) (PSI 1-6); higher = more stable
# Conditions: c terminus: a fixed tail appended
# 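Also: lentivirally expressed fusions sorted by FACS into six bins by GFP to DsRed ratio, PSI derived from sequencing read proportions per bin multiplied by bin number.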
row,Variant,protein stability index
1,AVPTDPARAFAEKNGLSFIETSAL [E6P],1.74
2,AVPTDQARAFAEKNGLSFIETSAL [E6Q],2.52
3,AVPTDRARAFAEKNGLSFIETSAL [E6R],2.25
4,AVPTDSARAFAEKNGLSFIETSAL [E6S],2.09
5,AVPTDTARAFAEKNGLSFIETSAL [E6T],1.71
6,AVPTDVARAFAEKNGLSFIETSAL [E6V],1.83
7,AVPTDWARAFAEKNGLSFIETSAL [E6W],2.07
8,AVPTDYARAFAEKNGLSFIETSAL [E6Y],1.88
9,AVPTDECRAFAEKNGLSFIETSAL [A7C],1.83
10,AVPTDEDRAFAEKNGLSFIETSAL [A7D],2.99
11,AVPTDEERAFAEKNGLSFIETSAL [A7E],3.29
12,AVPTDEFRAFAEKNGLSFIETSAL [A7F],2.48
13,AVPTDEGRAFAEKNGLSFIETSAL [A7G],2.17
14,AVPTDEHRAFAEKNGLSFIETSAL [A7H],2.43
15,AVPTDEIRAFAEKNGLSFIETSAL [A7I],2.21
16,AVPTDEKRAFAEKNGLSFIETSAL [A7K],2.19
17,AVPTDELRAFAEKNGLSFIETSAL [A7L],2.28
18,AVPTDEMRAFAEKNGLSFIETSAL [A7M],2.05
19,AVPTDENRAFAEKNGLSFIETSAL [A7N],2.33
20,AVPTDEPRAFAEKNGLSFIETSAL [A7P],2.04
21,AVPTDEQRAFAEKNGLSFIETSAL [A7Q],2.87
22,AVPTDERRAFAEKNGLSFIETSAL [A7R],2.46
23,AVPTDESRAFAEKNGLSFIETSAL [A7S],2.68
24,AVPTDETRAFAEKNGLSFIETSAL [A7T],2.57

row,Variant,protein stability index
1,AVPTDEVRAFAEKNGLSFIETSAL [A7V],2.25
2,AVPTDEWRAFAEKNGLSFIETSAL [A7W],2.09
3,AVPTDEYRAFAEKNGLSFIETSAL [A7Y],2.45
4,AVPTDEAAAFAEKNGLSFIETSAL [R8A],2.64
5,AVPTDEACAFAEKNGLSFIETSAL [R8C],2.32
6,AVPTDEADAFAEKNGLSFIETSAL [R8D],2.82
7,AVPTDEAEAFAEKNGLSFIETSAL [R8E],3.25
8,AVPTDEAFAFAEKNGLSFIETSAL [R8F],1.97
9,AVPTDEAGAFAEKNGLSFIETSAL [R8G],2.63
10,AVPTDEAHAFAEKNGLSFIETSAL [R8H],2.7
11,AVPTDEAIAFAEKNGLSFIETSAL [R8I],2.59
12,AVPTDEAKAFAEKNGLSFIETSAL [R8K],2.61
13,AVPTDEALAFAEKNGLSFIETSAL [R8L],2.16
14,AVPTDEAMAFAEKNGLSFIETSAL [R8M],2.4
15,AVPTDEANAFAEKNGLSFIETSAL [R8N],2.64
16,AVPTDEAPAFAEKNGLSFIETSAL [R8P],1.86
17,AVPTDEAQAFAEKNGLSFIETSAL [R8Q],2.66
18,AVPTDEASAFAEKNGLSFIETSAL [R8S],2.68
19,AVPTDEATAFAEKNGLSFIETSAL [R8T],2.84
20,AVPTDEAVAFAEKNGLSFIETSAL [R8V],2.72
21,AVPTDEAWAFAEKNGLSFIETSAL [R8W],2.46
22,AVPTDEAYAFAEKNGLSFIETSAL [R8Y],1.99
23,AVPTDEARCFAEKNGLSFIETSAL [A9C],1.82
24,AVPTDEARDFAEKNGLSFIETSAL [A9D],2.78

row,Variant,protein stability index
1,AVPTDEAREFAEKNGLSFIETSAL [A9E],3.13
2,AVPTDEARFFAEKNGLSFIETSAL [A9F],2.1
3,AVPTDEARGFAEKNGLSFIETSAL [A9G],2.57
4,AVPTDEARHFAEKNGLSFIETSAL [A9H],1.97
5,AVPTDEARIFAEKNGLSFIETSAL [A9I],2.33
6,AVPTDEARKFAEKNGLSFIETSAL [A9K],2.34
7,AVPTDEARLFAEKNGLSFIETSAL [A9L],2.45
8,AVPTDEARMFAEKNGLSFIETSAL [A9M],2.35
9,AVPTDEARNFAEKNGLSFIETSAL [A9N],2.46
10,AVPTDEARPFAEKNGLSFIETSAL [A9P],2.08
11,AVPTDEARQFAEKNGLSFIETSAL [A9Q],2.62
12,AVPTDEARRFAEKNGLSFIETSAL [A9R],1.96
13,AVPTDEARSFAEKNGLSFIETSAL [A9S],2.35
14,AVPTDEARTFAEKNGLSFIETSAL [A9T],2.96
15,AVPTDEARVFAEKNGLSFIETSAL [A9V],2.45
16,AVPTDEARWFAEKNGLSFIETSAL [A9W],2.27
17,AVPTDEARYFAEKNGLSFIETSAL [A9Y],2.11
18,AVPTDEARAAAEKNGLSFIETSAL [F10A],2.76
19,AVPTDEARACAEKNGLSFIETSAL [F10C],2.43
20,AVPTDEARADAEKNGLSFIETSAL [F10D],3.86
21,AVPTDEARAEAEKNGLSFIETSAL [F10E],3.81
22,AVPTDEARAGAEKNGLSFIETSAL [F10G],2.24
23,AVPTDEARAHAEKNGLSFIETSAL [F10H],2.54
24,AVPTDEARAIAEKNGLSFIETSAL [F10I],2.44

row,Variant,protein stability index
1,AVPTDEARAKAEKNGLSFIETSAL [F10K],2.37
2,AVPTDEARALAEKNGLSFIETSAL [F10L],2.33
3,AVPTDEARAMAEKNGLSFIETSAL [F10M],2.27
4,AVPTDEARANAEKNGLSFIETSAL [F10N],2.9
5,AVPTDEARAPAEKNGLSFIETSAL [F10P],2.31
6,AVPTDEARAQAEKNGLSFIETSAL [F10Q],3.08
7,AVPTDEARARAEKNGLSFIETSAL [F10R],2.49
8,AVPTDEARASAEKNGLSFIETSAL [F10S],2.84
9,AVPTDEARATAEKNGLSFIETSAL [F10T],2.91
10,AVPTDEARAVAEKNGLSFIETSAL [F10V],2.46
11,AVPTDEARAWAEKNGLSFIETSAL [F10W],2.36
12,AVPTDEARAYAEKNGLSFIETSAL [F10Y],2.71
13,AVPTDEARAFCEKNGLSFIETSAL [A11C],2.32
14,AVPTDEARAFDEKNGLSFIETSAL [A11D],3.24
15,AVPTDEARAFEEKNGLSFIETSAL [A11E],2.76
16,AVPTDEARAFFEKNGLSFIETSAL [A11F],1.94
17,AVPTDEARAFGEKNGLSFIETSAL [A11G],1.97
18,AVPTDEARAFHEKNGLSFIETSAL [A11H],2.64
19,AVPTDEARAFIEKNGLSFIETSAL [A11I],1.91
20,AVPTDEARAFKEKNGLSFIETSAL [A11K],1.96
21,AVPTDEARAFLEKNGLSFIETSAL [A11L],2.32
22,AVPTDEARAFMEKNGLSFIETSAL [A11M],2.24
